# T1: recombinant human αvβ8 protein (PARS-17102) (human)
# T1 construct: also called hu.aVb8.17102; not shown: C-terminal acid/basic coils and any purification tags
# T1 alpha: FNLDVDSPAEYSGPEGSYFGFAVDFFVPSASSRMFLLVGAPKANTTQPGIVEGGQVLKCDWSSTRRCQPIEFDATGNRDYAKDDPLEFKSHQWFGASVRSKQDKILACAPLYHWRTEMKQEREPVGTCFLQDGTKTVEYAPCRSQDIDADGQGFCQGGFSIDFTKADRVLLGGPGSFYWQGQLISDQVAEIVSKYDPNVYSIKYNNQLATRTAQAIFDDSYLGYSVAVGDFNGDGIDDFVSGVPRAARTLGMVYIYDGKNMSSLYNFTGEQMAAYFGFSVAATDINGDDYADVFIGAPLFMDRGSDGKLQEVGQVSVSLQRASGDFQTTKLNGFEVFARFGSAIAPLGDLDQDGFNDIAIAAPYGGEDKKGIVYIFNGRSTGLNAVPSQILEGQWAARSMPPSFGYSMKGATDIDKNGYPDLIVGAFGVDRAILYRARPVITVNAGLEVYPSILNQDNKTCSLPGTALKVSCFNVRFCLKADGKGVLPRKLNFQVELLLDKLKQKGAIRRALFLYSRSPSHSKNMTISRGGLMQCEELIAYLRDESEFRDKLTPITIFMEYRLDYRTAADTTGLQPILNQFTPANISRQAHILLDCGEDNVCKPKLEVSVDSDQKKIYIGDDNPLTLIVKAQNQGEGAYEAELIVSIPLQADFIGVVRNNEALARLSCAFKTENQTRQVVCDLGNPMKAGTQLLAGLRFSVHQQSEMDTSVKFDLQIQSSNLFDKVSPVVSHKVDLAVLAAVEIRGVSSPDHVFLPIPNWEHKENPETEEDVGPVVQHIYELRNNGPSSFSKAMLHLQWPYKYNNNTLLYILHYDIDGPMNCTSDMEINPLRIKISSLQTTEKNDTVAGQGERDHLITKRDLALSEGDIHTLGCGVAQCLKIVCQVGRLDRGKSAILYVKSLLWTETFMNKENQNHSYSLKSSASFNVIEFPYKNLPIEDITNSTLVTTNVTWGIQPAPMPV
# T1 beta: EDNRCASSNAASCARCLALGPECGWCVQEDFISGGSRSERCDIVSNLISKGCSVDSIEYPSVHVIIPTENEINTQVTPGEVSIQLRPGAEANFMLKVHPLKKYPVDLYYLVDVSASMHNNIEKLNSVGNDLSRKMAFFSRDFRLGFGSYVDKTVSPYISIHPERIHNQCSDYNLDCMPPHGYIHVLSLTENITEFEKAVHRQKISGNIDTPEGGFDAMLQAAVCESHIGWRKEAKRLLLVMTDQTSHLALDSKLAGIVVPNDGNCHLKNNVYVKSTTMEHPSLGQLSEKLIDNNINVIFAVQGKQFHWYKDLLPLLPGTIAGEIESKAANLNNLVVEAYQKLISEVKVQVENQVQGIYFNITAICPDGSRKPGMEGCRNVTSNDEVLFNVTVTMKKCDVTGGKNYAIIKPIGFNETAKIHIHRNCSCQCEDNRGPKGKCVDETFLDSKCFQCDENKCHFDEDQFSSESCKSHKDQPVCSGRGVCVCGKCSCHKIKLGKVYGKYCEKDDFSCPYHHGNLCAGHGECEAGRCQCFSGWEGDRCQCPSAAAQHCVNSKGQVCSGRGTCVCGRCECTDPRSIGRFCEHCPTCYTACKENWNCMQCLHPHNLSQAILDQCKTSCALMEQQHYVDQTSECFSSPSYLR
# B1: Hu.aVb8-65.H15L2 (aVb8-65.H15L2.hIgG1.LALAPG) (antibody, V domains shown)
# VH: EVQLLESGGGLVQPGGSLRLSCAASGIDLSNYAMIWVRQAPGKGLEWVGIISSSDRIWYASWVKGRFTISRDNSKNTLYLQMNSLRAEDTAVYYCSRSVSNSYFDGWNLWGQGTLVTVSS
# VL: DIQMTQSPSSVSASVGDRVTITCQASENINSLLAWYQQKPGKAPKLLIYRASTLASGVPSRFSGSGSGTDFTLTISSLQPEDFATYYCQSNYGFTGSGAFFYGFGQGTKVEIKR
# notes: Human IgG1 LALAPG; also called PARS-20475-65 (IH) aVb8-65.H15L2.hIgG1.LALAPG; humanized αvβ8-65
# What was measured:
# human αvβ5 = molecular target: T2, human αvβ5 (human, UniProt P06756 31-992; P18084 24-719); experiment: SPR binding assay, sample hu.aVb1,3,5,6
# T2 construct: Counter-screen integrin; construct not described; also called hu.aVb5; αV05
# human αvβ3 = molecular target: T3, human αvβ3 (human, UniProt P06756 31-992; P05106 27-718); experiment: SPR binding assay, sample hu.aVb1,3,5,6
# T3 construct: Counter-screen integrin; construct not described; also called hu.aVb3; αV03
# human αvβ6 = molecular target: T4, human αvβ6 (human, UniProt P06756 31-992; P18564 22-709); experiment: SPR binding assay, sample hu.aVb1,3,5,6
# T4 construct: Counter-screen integrin; construct not described; also called hu.aVb6; αV06
# human αvβ1 = molecular target: T5, human αvβ1 (human, UniProt P06756 31-992; P05556 21-728); experiment: SPR binding assay, sample hu.aVb1,3,5,6
# T5 construct: Counter-screen integrin; construct not described; also called hu.aVb1; αVP1
# [1] = molecular target: T6, recombinant mouse αvβ8 protein (PARS-17103) (murine, UniProt P43406 31-988; Q0VBD0 43-681, limits assumed); experiment: SPR binding assay, experiment 1, antibody as ligand, aVb8 as sample
# T6 construct: Made in house; also called mu.aVb8.17103
# [2] = molecular target: T1, recombinant human αvβ8 protein …; experiment: as above
# [3] = molecular target: T7, recombinant cynomolgus monkey αvβ8 protein (PARS-19393) (cynomolgus monkey, UniProt A0A2K5WCD3 31-992; G7P0S0 43-684); experiment: as above
# T7 construct: also called cyno.aVb8-19393; cyno.aVb8
# cyno.aVb8.13650 = molecular target: T8, cyno.aVb8.13650 (cynomolgus, UniProt A0A2K5WCD3 31-992; G7P0S0 43-684); experiment: SPR binding assay, experiment 2, antibody as ligand, aVb8 as sample
# T8 construct: Carries another lot/construct number than cyno.aVb8-19393; kept apart; also called cynomolgus αvβ8
# [4] = molecular target: T6, recombinant mouse αvβ8 protein …; experiment: as above
# [5] = molecular target: T1, recombinant human αvβ8 protein …; experiment: as above
# T6 sequence (P43406 31-988 limits assumed, chain 1 of 2): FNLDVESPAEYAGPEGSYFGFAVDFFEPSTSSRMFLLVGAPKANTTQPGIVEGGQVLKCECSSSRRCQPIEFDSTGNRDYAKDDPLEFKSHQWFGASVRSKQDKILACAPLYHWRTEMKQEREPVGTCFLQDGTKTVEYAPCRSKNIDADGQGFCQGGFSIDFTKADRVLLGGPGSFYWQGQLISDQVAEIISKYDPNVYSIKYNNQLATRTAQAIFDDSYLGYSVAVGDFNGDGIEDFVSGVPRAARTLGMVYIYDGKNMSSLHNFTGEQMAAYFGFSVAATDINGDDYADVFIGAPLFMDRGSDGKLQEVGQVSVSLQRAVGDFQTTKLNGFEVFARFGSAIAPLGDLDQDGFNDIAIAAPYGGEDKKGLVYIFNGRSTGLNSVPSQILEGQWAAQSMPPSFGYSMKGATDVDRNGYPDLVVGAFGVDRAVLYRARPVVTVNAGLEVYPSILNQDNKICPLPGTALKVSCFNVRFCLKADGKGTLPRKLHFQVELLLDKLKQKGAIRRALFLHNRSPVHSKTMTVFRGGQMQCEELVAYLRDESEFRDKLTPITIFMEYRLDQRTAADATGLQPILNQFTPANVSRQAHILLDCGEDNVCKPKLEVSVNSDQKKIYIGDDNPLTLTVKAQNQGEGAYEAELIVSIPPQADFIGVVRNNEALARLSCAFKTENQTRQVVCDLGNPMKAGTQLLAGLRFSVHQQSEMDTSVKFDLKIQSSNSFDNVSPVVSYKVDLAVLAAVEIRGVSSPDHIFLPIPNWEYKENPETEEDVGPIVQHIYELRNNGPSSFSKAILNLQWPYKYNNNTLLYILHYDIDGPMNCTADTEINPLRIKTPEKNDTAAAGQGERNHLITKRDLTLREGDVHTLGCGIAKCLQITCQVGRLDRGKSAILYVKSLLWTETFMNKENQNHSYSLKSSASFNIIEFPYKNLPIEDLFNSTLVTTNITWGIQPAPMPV
# T6 sequence (Q0VBD0 43-681 limits assumed, chain 2 of 2): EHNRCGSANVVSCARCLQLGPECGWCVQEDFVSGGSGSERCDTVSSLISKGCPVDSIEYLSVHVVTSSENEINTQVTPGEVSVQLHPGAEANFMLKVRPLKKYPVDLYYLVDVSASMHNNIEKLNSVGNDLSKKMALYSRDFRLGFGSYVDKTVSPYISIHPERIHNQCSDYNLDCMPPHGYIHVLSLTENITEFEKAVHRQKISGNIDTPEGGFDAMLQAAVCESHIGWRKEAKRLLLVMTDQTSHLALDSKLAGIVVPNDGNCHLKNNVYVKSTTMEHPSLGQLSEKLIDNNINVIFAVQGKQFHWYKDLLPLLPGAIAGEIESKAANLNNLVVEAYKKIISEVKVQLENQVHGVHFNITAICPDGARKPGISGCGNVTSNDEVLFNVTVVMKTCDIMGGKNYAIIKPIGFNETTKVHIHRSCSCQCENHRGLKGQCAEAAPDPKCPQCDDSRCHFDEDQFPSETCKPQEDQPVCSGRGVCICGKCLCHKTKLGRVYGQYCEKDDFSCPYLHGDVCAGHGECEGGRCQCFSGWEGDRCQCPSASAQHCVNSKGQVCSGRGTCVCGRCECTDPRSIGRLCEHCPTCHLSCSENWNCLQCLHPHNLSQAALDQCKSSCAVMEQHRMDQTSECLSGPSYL
# T2 sequence (P18084 24-719 limits assumed, one chain of several): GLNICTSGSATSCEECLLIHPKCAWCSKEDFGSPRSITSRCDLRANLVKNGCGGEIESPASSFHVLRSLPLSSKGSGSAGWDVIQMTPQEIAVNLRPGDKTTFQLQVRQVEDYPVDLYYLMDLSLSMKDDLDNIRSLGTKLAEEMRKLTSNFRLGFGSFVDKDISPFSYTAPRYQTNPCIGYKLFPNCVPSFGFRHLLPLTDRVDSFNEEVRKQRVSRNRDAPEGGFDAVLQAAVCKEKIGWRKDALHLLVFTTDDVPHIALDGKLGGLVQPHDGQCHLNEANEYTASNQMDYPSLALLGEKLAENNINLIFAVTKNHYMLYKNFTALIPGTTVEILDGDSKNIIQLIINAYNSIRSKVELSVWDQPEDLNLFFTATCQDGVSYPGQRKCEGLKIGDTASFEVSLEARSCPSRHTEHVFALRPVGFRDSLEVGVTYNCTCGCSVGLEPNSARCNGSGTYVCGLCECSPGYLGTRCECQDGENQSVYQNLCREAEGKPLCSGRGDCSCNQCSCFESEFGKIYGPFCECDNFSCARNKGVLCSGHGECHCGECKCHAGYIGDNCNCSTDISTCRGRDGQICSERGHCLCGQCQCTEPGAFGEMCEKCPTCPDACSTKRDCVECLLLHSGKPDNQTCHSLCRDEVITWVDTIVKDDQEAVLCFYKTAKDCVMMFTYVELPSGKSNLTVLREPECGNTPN
# T3 sequence (P05106 27-718 limits assumed, chain 2 of 2, one chain of several): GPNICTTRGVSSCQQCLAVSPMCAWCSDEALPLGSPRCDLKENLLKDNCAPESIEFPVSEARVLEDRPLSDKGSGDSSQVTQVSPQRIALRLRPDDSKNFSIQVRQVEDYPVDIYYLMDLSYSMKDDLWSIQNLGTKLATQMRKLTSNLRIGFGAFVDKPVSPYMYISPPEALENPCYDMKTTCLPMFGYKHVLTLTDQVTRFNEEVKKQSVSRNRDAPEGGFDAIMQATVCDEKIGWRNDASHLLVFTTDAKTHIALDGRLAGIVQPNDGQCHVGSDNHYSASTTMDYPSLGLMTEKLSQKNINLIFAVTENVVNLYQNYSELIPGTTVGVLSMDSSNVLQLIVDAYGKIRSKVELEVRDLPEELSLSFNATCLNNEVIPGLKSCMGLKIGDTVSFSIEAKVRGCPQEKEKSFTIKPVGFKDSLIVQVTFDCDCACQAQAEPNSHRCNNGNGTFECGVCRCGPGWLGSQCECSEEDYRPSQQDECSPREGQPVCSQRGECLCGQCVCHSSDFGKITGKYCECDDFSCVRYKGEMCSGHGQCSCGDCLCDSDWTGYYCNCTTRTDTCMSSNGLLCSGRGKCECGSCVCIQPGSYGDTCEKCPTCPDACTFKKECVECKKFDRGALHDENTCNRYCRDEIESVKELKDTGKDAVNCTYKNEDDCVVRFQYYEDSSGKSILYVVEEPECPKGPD
# T5 sequence (P05556 21-728 limits assumed, one chain of several): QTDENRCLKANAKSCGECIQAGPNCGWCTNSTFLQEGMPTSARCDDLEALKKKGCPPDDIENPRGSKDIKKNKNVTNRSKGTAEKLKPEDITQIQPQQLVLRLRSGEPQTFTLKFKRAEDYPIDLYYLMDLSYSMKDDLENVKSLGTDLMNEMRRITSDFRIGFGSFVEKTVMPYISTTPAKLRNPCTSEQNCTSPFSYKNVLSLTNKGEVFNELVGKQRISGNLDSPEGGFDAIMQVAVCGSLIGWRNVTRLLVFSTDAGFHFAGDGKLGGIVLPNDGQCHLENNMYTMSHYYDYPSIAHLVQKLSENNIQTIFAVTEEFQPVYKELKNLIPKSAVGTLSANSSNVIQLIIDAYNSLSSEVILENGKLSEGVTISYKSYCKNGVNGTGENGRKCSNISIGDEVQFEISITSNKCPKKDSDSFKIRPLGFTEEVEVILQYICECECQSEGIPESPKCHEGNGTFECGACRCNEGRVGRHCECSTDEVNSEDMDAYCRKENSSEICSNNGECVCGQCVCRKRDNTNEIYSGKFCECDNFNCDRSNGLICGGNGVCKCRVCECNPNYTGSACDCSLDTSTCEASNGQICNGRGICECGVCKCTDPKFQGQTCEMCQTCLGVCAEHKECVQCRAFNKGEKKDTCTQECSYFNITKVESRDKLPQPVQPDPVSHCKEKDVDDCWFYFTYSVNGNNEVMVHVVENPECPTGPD
# T4 sequence (P18564 22-709 limits assumed, one chain of several): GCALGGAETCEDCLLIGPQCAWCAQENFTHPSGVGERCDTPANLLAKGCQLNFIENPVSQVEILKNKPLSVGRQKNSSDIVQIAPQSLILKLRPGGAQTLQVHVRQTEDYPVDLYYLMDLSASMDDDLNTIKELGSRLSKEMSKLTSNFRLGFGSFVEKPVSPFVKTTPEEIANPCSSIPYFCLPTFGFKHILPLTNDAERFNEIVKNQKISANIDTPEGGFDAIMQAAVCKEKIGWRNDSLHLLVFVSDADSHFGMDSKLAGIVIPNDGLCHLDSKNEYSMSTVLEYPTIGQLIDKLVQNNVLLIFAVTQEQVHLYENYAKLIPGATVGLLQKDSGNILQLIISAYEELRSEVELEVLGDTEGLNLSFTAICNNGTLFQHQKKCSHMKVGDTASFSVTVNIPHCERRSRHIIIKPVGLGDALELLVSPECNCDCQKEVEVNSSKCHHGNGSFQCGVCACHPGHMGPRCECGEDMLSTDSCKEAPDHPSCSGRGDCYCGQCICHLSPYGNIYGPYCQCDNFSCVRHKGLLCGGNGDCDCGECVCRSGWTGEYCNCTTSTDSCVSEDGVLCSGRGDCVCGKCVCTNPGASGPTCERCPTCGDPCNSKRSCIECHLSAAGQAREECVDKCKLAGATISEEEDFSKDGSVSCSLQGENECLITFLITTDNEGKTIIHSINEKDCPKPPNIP
binder,measurement,setting,value
B1,binding result,human αvβ5,no binding
same,binding result,human αvβ3,no binding
same,binding result,human αvβ6,no binding
same,binding result,human αvβ1,no binding
same,Kd,[1],0.906 nM
same,koff,[1],0.000155 s⁻¹
same,kon,[1],171000 M⁻¹ s⁻¹
same,Kd,[2],0.384 nM
same,koff,[2],0.000208 s⁻¹
same,kon,[2],540000 M⁻¹ s⁻¹
same,Kd,[3],0.48 nM
same,koff,[3],0.000164 s⁻¹
same,kon,[3],341000 M⁻¹ s⁻¹
same,Kd,cyno.aVb8.13650,2.41 nM
same,koff,cyno.aVb8.13650,0.000151 s⁻¹
same,kon,cyno.aVb8.13650,62700 M⁻¹ s⁻¹
same,Kd,[4],1.23 nM
same,koff,[4],0.000152 s⁻¹
same,kon,[4],123000 M⁻¹ s⁻¹
same,Kd,[5],1.04 nM
same,koff,[5],0.000181 s⁻¹
same,kon,[5],174000 M⁻¹ s⁻¹
